In paper PMC4603797, “The Structural Differences between a Glycoprotein Specific F-Box Protein Fbs1 and Its Homologous Protein FBG3” (PLoS ONE, 2015):

B1: SBD of Fbs1 (117–297), wild type [murine] / ribonuclease B [modified: a single high-mannose oligosaccharide; a single high-mannose oligosaccharide] [bovine] (parent)
chain 1: FYFLSKRRRNLLRNPCGEEDLEGWSDVEHGGDGWRVEELPGDNGVEFTQDDSVKKYFASSFEWCRKAQVIDLQAEGYWEELLDTTQPAIVVKDWYSGRTDAGSLYELTVRLLSENEDVLAEFATGQVAVPEDGSWMEISHTFIDYGPGVRFVRFEHGGQDSVYWKGWFGARVTNSSVWVEP
chain 2: KETAAAKFERQHMDSSTSAASSSNYCNQMMKSRNLTKDRCKPVNTFVHESLADVQAVCSQKNVACKNGQTNCYQSYSTMSITDCRETGSSKYPNCAYKTTQANKHIIVACEGNPYVPVHFDASV

Variants of: B1
Experiment: pull-down
Details: with ribonuclease B [modified: a single high-mannose oligosaccharide, parent: 100, read off a plot

Variant | percent of parent
chain 1 A101C L104K | 110%
chain 1 A101C | 100%
chain 1 T99P | 49%
chain 1 L104K | 110%

Further lines, results first:

percent of parent | Variant
48% | chain 1 T99P L104K
25% | chain 1 T99P A101C
